Legend:
[1] = molecular target: T1, pBHD9, first amino-terminal 114 aa of POTH1 in pBridge (GAL4 DNA-binding domain fusion) (Solanum tuberosum); assay: in vitro binding protocol (immunoprecipitation of in vitro translated proteins)
T1 construct: also called pBDH9

[2] = molecular target: T2, GAD protein alone (GAL4 activation domain) (UniProt P04386 768-881, limits assumed); assay: immunoprecipitation of in vitro translated 35S-labelled proteins with anti-GAD antibodies
T2 construct: domain: GAD; Negative control of the immunoprecipitation assay
T2 sequence (looked up): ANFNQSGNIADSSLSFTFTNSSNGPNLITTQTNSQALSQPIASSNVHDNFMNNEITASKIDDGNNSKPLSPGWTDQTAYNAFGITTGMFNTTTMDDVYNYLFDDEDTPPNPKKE
Procedure: In vitro binding experiments were performed as described by Ni et al., "PIF3, a Phytochrome-Interacting Factor Necessary for Normal Photoinduced Signal Transduction, is a Novel Basic Helix-Loop-Helix Protein," *Cell* 95:657-667 (1998), which is hereby incorporated by reference in its entirety. The full-length sequence for POTH1 was cloned into a pET17b/GAD fusion cassette and transcribed under the control of the T7 promoter. The BEL cDNAs were cloned into pGEM11Z vectors and were transcribed under the control of the T7 promoter. ^35S-methionine labeled bait and prey proteins were synthesized using the TnT in vitro transcription-translation kit (Promega) according to the manufacturer's protocols. Each 50 µl TnT reaction contained 2.0 µg of template plasmid DNA and […] (20 µCi) of labeled ^35S-methionine. The POTH1:GAD/BEL complex was immunoprecipitated with anti-GAD antibodies (Santa Cruz Biotechnology, CA). The proteins from the pellet (one-half the fraction) and for the prey (one-fourth of the reaction volume) were resolved on a 10% SDS-PAGE gel and visualized by autoradiography.

StBEL-05 [3] = assay: Yeast two-hybrid interaction of POTH1 deletion constructs with StBEL-05; format: cell-based, potato; settings: yeast strain AH109
Source text: The Matchmaker two-hybrid system (Clontech, CA) was used for the yeast two-hybrid screen. Yeast transformation and plasmid rescue into DH5-a E. coli cells were according to the manufacturer's instructions. Full-length POTH1 was cloned into the pBridge (Clontech, CA) vector and used as bait to screen the potato (S. tuberosum ‘Desireé’) stolon cDNA library in pAD-GAL4-2.1 (Stratagene, Calif.). Positive interactions were confirmed by cotransforming yeast strain AH109 with each purified pAD plasmid and pBridge: POTH1 and plating on -leucine/-tryptophan (transformation control) and -leucine/-tryptophan/-histidine/-adenine (selection) nutrient medium. Induction of the AH109 reporter gene, lacZ, was measured with a yeast β-galactosidase assay kit (Pierce Chemicals). β-galactosidase activity (FIG. 9B) was determined from a known density of yeast cells and calculated as 1000×OD420/time of color reaction (minutes)×volume of yeast culture (ml)×OD600.
The StBEL-05 deletion constructs were amplified by PCR, then cloned into the vector, pGAD, in-frame with the GAL4 activation domain. POTH1 deletion constructs were amplified by PCR, and cloned into pBridge (Clontech) in-frame with the GAL4 binding domain. Sequencing of selected cDNAs and constructs was performed at the Iowa State University DNA Facility. […]

[4] = molecular target: T3, StBEL-05/POTH1 heterodimer (Solanum tuberosum); assay: EMSA; deduced consensus TGA(C/G)(T/A)TGAC; settings: tags: GST cleaved by Factor Xa
T3 chain 1: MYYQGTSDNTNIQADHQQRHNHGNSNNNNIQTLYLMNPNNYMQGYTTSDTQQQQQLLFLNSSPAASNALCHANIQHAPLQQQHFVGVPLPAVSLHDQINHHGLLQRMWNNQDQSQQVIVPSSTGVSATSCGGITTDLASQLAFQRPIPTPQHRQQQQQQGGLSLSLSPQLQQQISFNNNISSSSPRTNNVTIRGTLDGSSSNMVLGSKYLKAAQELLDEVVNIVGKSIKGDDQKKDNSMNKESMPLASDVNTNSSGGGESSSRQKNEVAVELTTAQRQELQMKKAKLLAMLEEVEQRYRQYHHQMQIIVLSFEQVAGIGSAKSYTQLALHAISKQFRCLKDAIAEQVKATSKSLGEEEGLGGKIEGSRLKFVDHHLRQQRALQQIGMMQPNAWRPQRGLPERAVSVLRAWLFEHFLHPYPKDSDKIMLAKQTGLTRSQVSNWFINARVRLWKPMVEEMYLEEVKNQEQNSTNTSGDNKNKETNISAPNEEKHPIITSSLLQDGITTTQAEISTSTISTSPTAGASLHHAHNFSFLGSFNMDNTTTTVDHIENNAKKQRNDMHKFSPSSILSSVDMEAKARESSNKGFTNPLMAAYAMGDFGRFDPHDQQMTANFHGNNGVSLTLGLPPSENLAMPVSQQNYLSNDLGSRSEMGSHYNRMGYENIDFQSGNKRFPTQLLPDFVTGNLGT
T3 chain 2: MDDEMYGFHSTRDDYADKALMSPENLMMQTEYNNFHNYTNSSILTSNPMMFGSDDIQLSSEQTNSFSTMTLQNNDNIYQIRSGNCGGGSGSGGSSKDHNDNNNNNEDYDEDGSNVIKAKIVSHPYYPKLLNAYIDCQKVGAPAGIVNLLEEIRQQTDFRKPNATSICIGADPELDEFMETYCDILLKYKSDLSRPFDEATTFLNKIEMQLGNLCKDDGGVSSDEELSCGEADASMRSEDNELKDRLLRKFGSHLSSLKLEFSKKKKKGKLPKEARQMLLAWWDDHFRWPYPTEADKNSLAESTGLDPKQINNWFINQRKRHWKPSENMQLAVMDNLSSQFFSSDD

StBEL-05 [5] = molecular target: T4, StBEL-05 (Solanum tuberosum); assay: EMSA; settings: tags: GST fusion from pGEX-5X-2, GST cleaved by Factor Xa
T4 chain: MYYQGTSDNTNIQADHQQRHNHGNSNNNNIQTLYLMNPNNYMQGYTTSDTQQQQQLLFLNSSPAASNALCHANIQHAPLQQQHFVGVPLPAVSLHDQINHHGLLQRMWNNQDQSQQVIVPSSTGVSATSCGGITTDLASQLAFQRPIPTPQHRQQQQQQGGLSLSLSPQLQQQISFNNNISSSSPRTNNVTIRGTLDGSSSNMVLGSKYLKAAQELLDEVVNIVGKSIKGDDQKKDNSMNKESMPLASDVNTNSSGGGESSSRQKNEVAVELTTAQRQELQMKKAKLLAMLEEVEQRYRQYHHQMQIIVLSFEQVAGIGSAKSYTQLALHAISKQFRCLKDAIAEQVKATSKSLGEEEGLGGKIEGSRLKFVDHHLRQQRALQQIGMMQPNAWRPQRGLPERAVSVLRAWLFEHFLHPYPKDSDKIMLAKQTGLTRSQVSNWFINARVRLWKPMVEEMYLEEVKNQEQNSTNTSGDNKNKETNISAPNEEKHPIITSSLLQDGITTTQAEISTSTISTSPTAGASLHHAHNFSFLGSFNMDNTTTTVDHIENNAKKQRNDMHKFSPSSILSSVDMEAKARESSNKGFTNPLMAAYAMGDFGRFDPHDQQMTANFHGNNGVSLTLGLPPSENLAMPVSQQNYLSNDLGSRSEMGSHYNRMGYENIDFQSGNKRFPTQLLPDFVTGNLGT

POTH1 = molecular target: T5, POTH1 (Solanum tuberosum); assay: EMSA; settings: tags: GST fusion from pGEX-5X-2, GST cleaved by Factor Xa
T5 chain: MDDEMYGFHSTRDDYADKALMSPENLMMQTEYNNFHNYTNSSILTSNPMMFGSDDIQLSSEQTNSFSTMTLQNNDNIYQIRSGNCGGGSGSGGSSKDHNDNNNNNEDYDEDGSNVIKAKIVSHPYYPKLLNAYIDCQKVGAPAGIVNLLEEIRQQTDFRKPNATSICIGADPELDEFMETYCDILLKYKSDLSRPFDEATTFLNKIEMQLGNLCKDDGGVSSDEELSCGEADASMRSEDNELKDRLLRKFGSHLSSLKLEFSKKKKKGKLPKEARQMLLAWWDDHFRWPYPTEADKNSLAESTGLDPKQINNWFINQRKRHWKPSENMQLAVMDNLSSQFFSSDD

B1: StBEL-05 protein synthesized in vitro from pGEM11Z (other)
chain: MYYQGTSDNTNIQADHQQRHNHGNSNNNNIQTLYLMNPNNYMQGYTTSDTQQQQQLLFLNSSPAASNALCHANIQHAPLQQQHFVGVPLPAVSLHDQINHHGLLQRMWNNQDQSQQVIVPSSTGVSATSCGGITTDLASQLAFQRPIPTPQHRQQQQQQGGLSLSLSPQLQQQISFNNNISSSSPRTNNVTIRGTLDGSSSNMVLGSKYLKAAQELLDEVVNIVGKSIKGDDQKKDNSMNKESMPLASDVNTNSSGGGESSSRQKNEVAVELTTAQRQELQMKKAKLLAMLEEVEQRYRQYHHQMQIIVLSFEQVAGIGSAKSYTQLALHAISKQFRCLKDAIAEQVKATSKSLGEEEGLGGKIEGSRLKFVDHHLRQQRALQQIGMMQPNAWRPQRGLPERAVSVLRAWLFEHFLHPYPKDSDKIMLAKQTGLTRSQVSNWFINARVRLWKPMVEEMYLEEVKNQEQNSTNTSGDNKNKETNISAPNEEKHPIITSSLLQDGITTTQAEISTSTISTSPTAGASLHHAHNFSFLGSFNMDNTTTTVDHIENNAKKQRNDMHKFSPSSILSSVDMEAKARESSNKGFTNPLMAAYAMGDFGRFDPHDQQMTANFHGNNGVSLTLGLPPSENLAMPVSQQNYLSNDLGSRSEMGSHYNRMGYENIDFQSGNKRFPTQLLPDFVTGNLGT
modifications: 35S-methionine labelled (in vitro translation)
notes: BEL cDNA cloned into pGEM11Z under the T7 promoter; also called p11Z-5
binding result [1]: no binding | binding result [2]: no binding

B2: pBHD-9: POTH1 construct: first amino-terminal 114 aa, no KNOX domain sequence; transcriptional activator alone (protein)
chain: MKLLSSIEQACDICRLKKLKCSKEKPKCAKCLKNNWECRYSPKTKRSPLTRAHLTEVESRLERLEQLFLLIFPREDLDMILKMDSLQDIKALLTGLFVQDNVNKDAVTDRLASVETDMPLTLRQHRISATSSSEESSNKGQRQLTVSMDDEMYGFHSTRDDYADKALMSPENLMMQTEYNNFHNYTNSSILTSNPMMFGSDDIQLSSEQTNSFSTMTLQNNDNIYQIRSGNCGGGSGSGGSSKDHNDNNNNNEDYDEDGSN
interaction with StBEL-05 (StBEL-05 [3]): Interaction with StBEL-05 was observed

B3: P1 binding site oligo (dsDNA)
DNA 1: TTGACTTGAC
DNA 2: GTCAAGTCAA
binding result [4]: binds | binding result (StBEL-05 [5]): binds | binding result (POTH1): binds

— US7579150B1, “Mobile RNA acts as a signal to regulate plant growth and development” (Iowa State University Research Foundation, Inc., priority 2004, dated 2009)
